According to article PMC6447637, “Ca^2+-dependent regulation of sodium channels NaV1.4 and NaV1.5 is controlled by the post-IQ motif” (Nature Communications, 2019):

How the values were obtained:
Conditions in all cases: both partners purified
[1] = target: T1, calmodulin (full-length mammalian, CALM2) (R. norvegicus, UniProt P0DP30 1-149); assay: ITC; CaM species in the syringe, NaV CTerm in the cell; Ca2+-free: 20 mM MOPS, 150 mM NaCl, 1 mM MgCl2, 50 µM EGTA; VP-ITC; fitted to a single binding site per monomer, error of the fit; one replicate
T1 construct: Full-length mammalian calmodulin (R. norvegicus CALM2; 100% amino acid identity with H. sapiens CaM), 148 residues; apo CaM and (Ca2+)4-CaM are the same protein without and with 1 mM CaCl2; the two conditions are two assays; also called CaM; WT CaM; source: E. coli BL21-CodonPlus RIL, purified (two Phenyl FF columns)

[2] = target: T1, calmodulin (full-length mammalian, …); assay: ITC; CaM species in the syringe, NaV CTerm in the cell; Ca2+-saturating: 20 mM MOPS, 150 mM NaCl, 1 mM MgCl2, 50 µM EGTA with 1 mM CaCl2; VP-ITC; fitted to a single binding site per monomer, error of the fit; one replicate
[3] = target: T2, calmodulin (full-length mammalian calmodulin, R. norvegicus CALM2) (R. norvegicus, UniProt P0DP30 1-149); assay: ITC; Ca2+-free: CTerm (2–25 µM) in the sample cell, CaM (30–1000 µM) as titrant; 20 mM MOPS, 150 mM NaCl, 1 mM MgCl2, 50 µM EGTA; VP-ITC, single binding site fit, one replicate
T2 construct: full-length mammalian calmodulin, R. norvegicus CALM2, 100% amino acid identity with H. sapiens CaM, in pET24b; Ca2+-free (apo, 50 µM EGTA) and Ca2+-saturated ((Ca2+)4, 1 mM CaCl2) states are the same molecule; the assays tell them apart; also called CaM; CaM WT; source: E. coli BL21-CodonPlus RIL; for ITC expressed alone and purified (two Phenyl FF columns); for crystals co-expressed and …

[4] = target: T2, calmodulin (full-length mammalian …); assay: ITC; Ca2+-saturating: CTerm (2–25 µM) in the sample cell, CaM, CaM12 or CaM34 (30–1000 µM) as titrant; 20 mM MOPS, 150 mM NaCl, 1 mM MgCl2, 50 µM EGTA with 1 mM CaCl2; VP-ITC, single binding site fit, one replicate

| Binder | Ka [1] [M⁻¹] | Ka [2] [M⁻¹] | Kd [3] [nM] | Kd [4] [nM] |
| --- | --- | --- | --- | --- |
| NaV1.4 CTerm Long (residues 1599-1764) (domain or fragment, The text layer of the ITC plots in D1 (p5, p9); not shown: GST, N-terminal, kept) ENFNVATEESSEPLGEDDFEMFYETWEKFDPDATQFIAYSRLSDFVDTLQEPLRIAKPNKIKLITLDLPMVPGDKIHCLDILFALTKEVLGDSGEMDALKQTMEEKFMAANPSKVSYEPITTTLKRKHEEVCAIKIQRAYRRHLLQRSMKQASYMYRHSHDGSGDD | 5.85e+07 | 3.63e+06 |  |  |
| NaV1.4 CTerm Long (residues 1599–1764), freed of CaM for ITC (domain or fragment, H. sapiens NaV1.4 (SCN4A) C-terminal domain, a.a; the protein may have carried GST in the titrations; source: E. coli BL21-CodonPlus RIL, co-expressed with CaM, purified (Glutathione Sepharose; CaM removed by a TFP and Ca2+ wash; eluted with glutathione; 70% pure)) ENFNVATEESSEPLGEDDFEMFYETWEKFDPDATQFIAYSRLSDFVDTLQEPLRIAKPNKIKLITLDLPMVPGDKIHCLDILFALTKEVLGDSGEMDALKQTMEEKFMAANPSKVSYEPITTTLKRKHEEVCAIKIQRAYRRHLLQRSMKQASYMYRHSHDGSGDD |  |  | 17 | 275 |
| NaV1.4 CTerm Short (residues 1599–1754), freed of CaM for ITC (domain or fragment, additional 7 residues at the C-terminus of the construct; source: E. coli BL21-CodonPlus RIL, co-expressed with CaM, purified (Glutathione Sepharose; CaM removed by a TFP and Ca2+ wash; eluted with glutathione; 70% pure)) ENFNVATEESSEPLGEDDFEMFYETWEKFDPDATQFIAYSRLSDFVDTLQEPLRIAKPNKIKLITLDLPMVPGDKIHCLDILFALTKEVLGDSGEMDALKQTMEEKFMAANPSKVSYEPITTTLKRKHEEVCAIKIQRAYRRHLLQRSMKQASYMYLTRAAAS |  |  | 114 | 305 |
